From paper PMC8969299 (Chemical Engineering Journal, 2022) come the findings set out here.

For the assay, the target named is SARS-CoV-2 (2019-nCoV) spike (S) protein RBD-His recombinant protein (SARS-CoV-2, UniProt P0DTC2). Put plainly: FRET or BRET. Background: In BRET a luciferase serves as donor, and the signal depends on an acceptor being close.

B1: hACE2 mimic peptide beacon (COVID19-PEB) (peptide)
peptide: IEEQAKTFLDKFNHEAEDLFYQSSLASWK
As to B1, the binding result is “binds”.
